Experiments:
[1] = target: T1, human PD-L1 expressed on cells (HCC827, NCI-H292, CHO-PD-L1, engineered CHO-K1) (human, UniProt Q9NZQ7 19-290); assay: cell-based or functional assay
[2] = target: T2, human PD-L1, his tagged (hPD-L1-his) (human, UniProt Q9NZQ7 19-238, limits assumed); assay: BLI (ForteBio Octet), human PD-L1
T2 construct: also called huPD-L1-His; recombinant human PD-L1; not shown: his tag

[3] = target: T3, cynomolgus PD-L1, his tagged (cPD-L1-his) (cynomolgus (Macaca fascicularis), UniProt G7PSE7 19-238); assay: BLI (ForteBio Octet), cynomolgus PD-L1
T3 construct: also called cyPD-L1-His; Cyno PD-L1
T3 sequence (G7PSE7 entry or part of it limits assumed, form in doubt): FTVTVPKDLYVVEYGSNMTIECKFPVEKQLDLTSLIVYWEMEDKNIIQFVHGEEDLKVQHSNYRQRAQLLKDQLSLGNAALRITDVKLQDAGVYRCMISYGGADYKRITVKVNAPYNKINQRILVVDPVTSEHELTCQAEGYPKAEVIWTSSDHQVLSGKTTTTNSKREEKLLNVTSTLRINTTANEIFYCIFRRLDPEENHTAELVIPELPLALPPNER

[4] = target: human PD-L1 (hPD-L1) coated on ELISA wells, Example 7 (human, UniProt Q9NZQ7 19-238, limits assumed); assay: blocking ELISA: titrated + biotinylated hPD-1-Fc 1 ug/mL on coated hPD-L1
Sequence of human PD-L1 (hPD-L1) coated on ELISA wells, Example 7 (Q9NZQ7 19-238 limits assumed): as the sequence (G7PSE7 entry or part of it limits assumed, form in doubt) above, with T33A, S34A, N62S, Q68R, R82Q, L173F, A185T, I192T, L215H counted along it
Text: The plate was developed with TMB and Stop buffer and the absorbance at 450 nm was read using a SpectraMax plate reader.

[5] = target: T1, human PD-L1 expressed on cells (HCC827, …); assay: flow cytometry on HCC827 cells, apparent Kd; calculated using data points up to 3.7 nM
Description: (§1) The ability of PD-L1 antibody sialidase conjugates to bind PD-L1 on HCC827 and NCI-H292 cells was examined next. […] After washing with staining buffer, cells were incubated with AF647 Goat anti-human IgG(H+L) in staining buffer at 4° C. for 30 min. After 2× wash with staining buffer, cells were fixed and run on FACSCelesta.

[6] = target: T1, human PD-L1 expressed on cells (HCC827, …); assay: flow cytometry on NCI-H292 cells, apparent Kd; calculated using data points up to 3.7 nM
Description: as §1

T1 sequence (Q9NZQ7 19-290, change not shown): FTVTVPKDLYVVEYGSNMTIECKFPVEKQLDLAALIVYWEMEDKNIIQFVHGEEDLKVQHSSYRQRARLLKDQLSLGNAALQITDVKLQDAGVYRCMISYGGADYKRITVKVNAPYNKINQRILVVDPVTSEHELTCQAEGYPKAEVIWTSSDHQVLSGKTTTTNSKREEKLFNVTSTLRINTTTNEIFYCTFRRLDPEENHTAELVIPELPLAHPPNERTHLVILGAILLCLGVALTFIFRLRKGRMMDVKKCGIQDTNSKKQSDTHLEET
T2 sequence (Q9NZQ7 19-238 limits assumed): as the sequence (G7PSE7 entry or part of it limits assumed, form in doubt) above, with T33A, S34A, N62S, Q68R, R82Q, L173F, A185T, I192T, L215H counted along it

B1: h769.T-1A (antibody, V domains shown)
VH: EVQLVQSGAEVKKPGATVKISCKVSGFNIKDTYMHWVQQAPGKGLEWMGLIDPANDNTIYAEKFQGRVTITADTSTDTAYMELSSLRSEDTAVYYCAREGYGGSYGEGYWGQGTLVTVSS
VL: EIVMTQSPPTLSLSPGERVTLSCRASQSVSNDLSWYQQKPGQAPRLLIYYASIRFTGIPARFSGSGSGTDFTLTISSLQPEDFAVYYCQQDYTSPWTFGQGTKVEIK
notes: bivalent
EC50 (NFAT-luciferase fold induction) [1]: 0.56 nM
Kd [2]: 2.13 nM
koff [2]: 0.000728 s⁻¹
kon [2]: 346000 M⁻¹ s⁻¹
Kd [3]: 1.53 nM
koff [3]: 0.000443 s⁻¹
kon [3]: 297000 M⁻¹ s⁻¹
IC50 [4]: 1.44 nM
Kd [5]: 0.125 nM
Kd [6]: 0.0973 nM
